Consider 32 sequences from the supplement of paper PMC9170038.

In this data set the test system is MS2 coat protein. Kind of data set: apparent KD of MS2 coat protein; designed switch direction (-1 OFF switch, 1 ON switch): -1; higher = weaker reporter binding. Summed up: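 RNA switches sharing common flanks were transcribed by stalled E. coli RNA polymerase on Illumina chips. A doubling series of SNAP-549-labelled MS2 coat protein, from 0.7 or 1.5 nM to 3 µM, was applied in Tris-HCl pH 7.5 buffer with KCl, MgCl2, BSA, DTT, tRNA and Tween-20. Each step lasted 0.8–1.5 h at the bottom of the series and 10–20 min at the top. Normalised cluster fluorescence was curve-fitted, giving apparent KD as the per-design median over clusters.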

The mark [1] stands for this setting: Eterna round: R95, input ligand: microRNA oligo, concentration not stated.
Setting [2] is: Eterna round: R95, input ligand: FMN 200 uM.
[3] abbreviates: Eterna round: R95, input ligand: none.
Where [4] appears, read: input ligand: microRNA oligo, concentration not stated.

In the case of “CUUGUGUGAGGAUAUGACAAUGGUAUCUUCGGAUACCAUUGUCAGAAGGUACAUGAGGAUCACCCAUGUAGAUC [Exclusion 4 - Mod Brourd Ex 4-3: 20] (puzzle: Exclusion 4)”, the “apparent KD of MS2 coat protein” value under setting [1] was determined as 72 nM.

As to “GCCAGUGCAGGAUAUCUAUAACCCUACAUGAGGAUCACCCAUGUCCAGCGAAAGCUGGAGGGAGAAGGGCACUGGC [Fiskers Ex 5 - 27] (puzzle: Exclusion 5)”, the “apparent KD of MS2 coat protein” value stood at 15.5 nM under setting [2], 17.6 nM under setting [1] and 21.5 nM under setting [3].

Regarding “AAUAACAGAGGAUAUACUAUUUUAUGUGUUUGUUGUUUUGAACAUGAGGAUCACCCAUGUAGAAGGCUGAGUAA [JMF 40] (puzzle: Exclusion 2)”, the “apparent KD of MS2 coat protein” value under setting [1] is 24.2 nM.

“AAUACAAGCUAUUGAUCCCACAUGAGGAUCACCCAUGUAGGUGGCCGUGAGACCACCUUUACGAUAGCUCGUCUUAU [Sensor-V1 #51] (Eterna round: R97, puzzle: Sensor, turn-off variant 1)”: the “apparent KD of MS2 coat protein” value came out at 277 nM (input ligand: FMN 200 uM) and 274 nM (input ligand: none).

With “AUAAAUCAUGUAGGAUAUGCGUGGCAAAGCUAUGCAGAAGGACAUGAGGAUCACCCAUGUGCUUCCGUCUGCGUACAGACGGUA [Mat - Exclusion NG 1 - Mod of JL - D33] (Eterna round: R96, puzzle: Exclusion NG 1)”, the “apparent KD of MS2 coat protein” value runs as follows: (input ligand: FMN 200 uM) 114 nM; under setting [4], 80.7 nM; (input ligand: none) 107 nM.

Consider “AAGGCGGUAGGAUAUACAUGAGGAUCACCCAUGUGUCGCAUAAUCACAGCAGUACUCUGUAGAAGGACCGUCAG [Eternabot (L2) Solution 100] (Eterna round: R97, puzzle: Exclusion 3)”, for which the “apparent KD of MS2 coat protein” value runs as follows: (input ligand: FMN 200 uM) 457 nM; (input ligand: none) 114 nM.

Take “CCUCCGUAUAAGGAUAUCGUCCAGGAAACUGGACGAGAAGGUAUGACAUGAGGAUCACCCAUGUGAAAGUGAUG [Mod of Brourd 25 - Jieux - Exclusion 6] (Eterna round: R97, puzzle: Exclusion 6)”: the “apparent KD of MS2 coat protein” value by setting is: (input ligand: FMN 200 uM) 212 nM; (input ligand: none) 71.4 nM.

For “CCUAUGUGAGGAUAUCACUGGUCUGCUCACUAGAUGAUCAGUGAGAAGGCACAUGAGGAUCACCCAUGUCAGUG [Exclusion 4 - Mod Brourd Ex 4-3 - 53] (puzzle: Exclusion 4)”, the “apparent KD of MS2 coat protein” value under setting [1] came out at 92.9 nM.

Consider “AGUGUGUGGCAGGAUAUUCUGUUGAUUAGGACAGAAGAAGGGUCUACAUGAGGAUCACCCAUGUAAGCGGUUGA [Ex6 #36] (Eterna round: R97, puzzle: Exclusion 6)”, for which the “apparent KD of MS2 coat protein” value came out at 275 nM (input ligand: FMN 200 uM) and 268 nM (input ligand: none).

For the sequence “AAUUAUUUAUGAGGAUAUUGUGGUGAAACACCACAAGAAGGCAUGAUACACAUGAGGAUCACCCAUGUGAGCCUGAUGCAUAUA [Ex NG1 #58] (Eterna round: R96, puzzle: Exclusion NG 1)”, the “apparent KD of MS2 coat protein” value under setting [4] was 13.5 nM.

Regarding “GCUAGAGCAGGAUAUCUAGAUCCACACAUGAGGAUCACCCAUGUAGUCGAAAGACUAAGAAGAGAAGGGCUCUAGC [Omei Ex5 E16] (Eterna round: R97, puzzle: Exclusion 5)”, the “apparent KD of MS2 coat protein” value was determined as 322 nM (input ligand: FMN 200 uM) and 324 nM (input ligand: none).

In the case of “AAAUACAAGCAAAGAUCCUACAUGAGGAUCACCCAUGUGUUCGUCUUAUAAAGUACUAUCACGAAAGUGAUAGUACA [Sensor 3, v1 - 18] (puzzle: Sensor v3, turn-off variant 1)”, the “apparent KD of MS2 coat protein” value worked out at 309 nM under setting [2], 1100 nM under setting [1] and 198 nM under setting [3].

On to “GAGAACUGAGGAUAUACAUGAGGAUCACCCAUGUUAAGAAGAUAGUAUUGAUGGUUCUGUAGAAGGCAGAGAGA [JR_Ex3_Sub066] (Eterna round: R97, puzzle: Exclusion 3)”, for which the “apparent KD of MS2 coat protein” value (input ligand: FMN 200 uM) was 34.5 nM and the “apparent KD of MS2 coat protein” value (input ligand: none) was 30.8 nM.

Turning to “AGAUAGAGCUGAGGAUAUGAGAAUAGAAAGAAAUCAGAAGGCAGACAUGAGGAUCACCCAUGUGAGUUCUUGAGAUUACAUGGU [Prohibition 43 - Jieux - Exclusion NG 1] (Eterna round: R96, puzzle: Exclusion NG 1)”, the “apparent KD of MS2 coat protein” value runs as follows: (input ligand: FMN 200 uM) 498 nM; under setting [4], 221 nM; (input ligand: none) 247 nM.

Consider “UCUGGUCGGAAGGAUAUGGUCGGGUCAAAUCGUCCAGAAGGUCUGACAUGAGGAUCACCCAUGUGAGUCCAAAG [Ataesma] (puzzle: Exclusion 6)”, for which the “apparent KD of MS2 coat protein” value is, setting by setting: under setting [2], 77.5 nM; under setting [1], 20.4 nM; under setting [3], 21.8 nM.

On to “CAGUACUGAGGAUAUACAUGAGGAUCACCCAUGUGUUCCAGCUAGGAAACUAGCAGAAGUAGAAGGCAGUACUG [salish99_ex3_r3_067] (puzzle: Exclusion 3)”, for which the “apparent KD of MS2 coat protein” value came to 425 nM under setting [2], 25.5 nM under setting [1] and 23.9 nM under setting [3].

Take “GAGUACUUAGGAUAUACAUGAGGAUCACCCAUGUCUAGGCGGCGCUGGGUCCCUCGCAGUAGAAGGAAGCGCUG [Ceeranat] (puzzle: Exclusion 3)”: the “apparent KD of MS2 coat protein” value under setting [1] came to 20.6 nM.

For “AAUAGGACAGGAUAUCCGGAGUCGAACAUGAGGAUCACCCAUGUGAUGAGGAUGUUCGCUGGAGAAGGGUCGGGCU [Teonus] (puzzle: Exclusion 5)”, the “apparent KD of MS2 coat protein” value is, setting by setting: under setting [2], 83.9 nM; under setting [1], 56.5 nM; under setting [3], 53.7 nM.

Consider “GGUUAUUGCAAGGAUAUGCUUUUUUGUGAAAUUGCAGAAGGUGCAACAUGAGGAUCACCCAUGUUGGAUGGGUU [JR_E6_Sub017] (puzzle: Exclusion 6)”, for which the “apparent KD of MS2 coat protein” value under setting [1] was 93.7 nM.

On to “AUCAGCUCGUGAGGAUAUACAUGAGGAUCACCCAUGUGAUCAAUAGCAGCUUCGGCUGCAUUAAUGUAGAAGGUACGAGCUGAU [ENG2/5-C3] (Eterna round: R96, puzzle: Exclusion NG 2)”, for which the “apparent KD of MS2 coat protein” value by setting is: (input ligand: FMN 200 uM) 114 nM; under setting [4], 216 nM; (input ligand: none) 961 nM.

With “GUGGGUUACAUGAGGAUCACCCAUGUAUAGUGGGAAGAGAGAUAGGAUAUGAUGUGAGAAUUAUAUUAGAAGGAUCGAGACUAG [AK ExNG3-2.6] (Eterna round: R96, puzzle: Exclusion NG 3)”, the “apparent KD of MS2 coat protein” value is 632 nM (input ligand: FMN 200 uM), 236 nM under setting [4] and 351 nM (input ligand: none).

On to “AGGUCACAUGAGGAUCACCCAUGUGAGGAUAUAGACUCAAGAGCUUCGGCUCUCAAGUUUAGAAGGCGCAAUGA [EX1 #52] (Eterna round: R97, puzzle: Exclusion 1)”, for which the “apparent KD of MS2 coat protein” value worked out at 31.7 nM (input ligand: FMN 200 uM) and 31.2 nM (input ligand: none).

As for “AAAACACAUGAGGAUCACCCAUGUGAGGAUAUGCUAUGGAAAAUAAAAAUAAAACAUAGCAGAAGGCACAAAGG [Denovo 18] (Eterna round: R96, puzzle: Exclusion 1)”, the “apparent KD of MS2 coat protein” value under setting [4] amounted to 54 nM.

Turning to “ACAUGUUAUCCAUGAUAUCACAUGAGGAUCACCCAUGUUAAGGCGAUUUUGAGGUGUAAGCUUUGUGCUCGACUUAU [JR_STOV1_Sub055] (Eterna round: R97, puzzle: Sensor, turn-off variant 1)”, the “apparent KD of MS2 coat protein” value (input ligand: FMN 200 uM) was found to be 107 nM and the “apparent KD of MS2 coat protein” value (input ligand: none) came to 78.8 nM.

Take “UUGGUGUCAGGAUAUGCUUAAUGUAUUUUAUUAUAAUAUAUACAUGAGGAUCACCCAUGUAGAAGGGACAUUGU [LRO-Excl2-08-Fireball XL5] (Eterna round: R97, puzzle: Exclusion 2)”: the “apparent KD of MS2 coat protein” value was determined as 125 nM (input ligand: FMN 200 uM) and 154 nM (input ligand: none).

As to “CUAUUACGAGGAUAUGAUUUAAAUAACAUGAGGAUCACCCAUGUUUUUACGUUAUUAUGUUUAGAAGGCGUAUUGU [JR_E5_Sub026] (puzzle: Exclusion 5)”, the “apparent KD of MS2 coat protein” value under setting [1] is 43.4 nM.

With “AAUACUAACACGAAAGUGUUAGUACAAUAAGCUUGUGGUACAUGAGGAUCACCCAUGUCCUCAUAAGCUCGUCUUAU [Mat - Sensor v3 - Turn-off var 2 - D41] (puzzle: Sensor v3, turn-off variant 2)”, the “apparent KD of MS2 coat protein” value was determined as 24.3 nM under setting [2], 74.5 nM under setting [1] and 21.9 nM under setting [3].

In the case of “AUUUUGUGAGGAUAUGGUAACGUUUACAUGAGGAUCACCCAUGUUUCAUGGGACUAGAGACUAGAAGGCACUAACG [JR_Ex5_Sub028] (Eterna round: R97, puzzle: Exclusion 5)”, the “apparent KD of MS2 coat protein” value runs as follows: (input ligand: FMN 200 uM) 251 nM; (input ligand: none) 279 nM.

Regarding “GCUACUCCAGUCAGGAUAUGGAUCGGCUAAAAGACCCAGAAGGGACUUGAGGAUCACCCAAGUAACGGCUCGGG [Soveare] (Eterna round: R97, puzzle: Brourd's mod of Exclusion 4)”, the “apparent KD of MS2 coat protein” value runs as follows: (input ligand: FMN 200 uM) 378 nM; (input ligand: none) 54.2 nM.

On to “GGUUGGCGAGGAUAUACAUGAGGAUCACCCAUGUGAGAGAAAAAAGUGAGGAAGAAACGUAGAAGGCGCUGACG [salish99_ex3_r3_037] (puzzle: Exclusion 3)”, for which the “apparent KD of MS2 coat protein” value is, setting by setting: under setting [2], 42.6 nM; under setting [1], 34.2 nM; under setting [3], 45.2 nM.

As to “UAACGUGGCCUGAUCCUCCCUAACAUGAGGAUCACCCAUGUCUAGGAUAUCCGAACAAACAACGAGGAGAAGGAGACGAAACAU [Veleedan] (Eterna round: R96, puzzle: Exclusion NG 3)”, the “apparent KD of MS2 coat protein” value (input ligand: FMN 200 uM) was determined as 37.5 nM, the “apparent KD of MS2 coat protein” value under setting [4] amounted to 22.7 nM and the “apparent KD of MS2 coat protein” value (input ligand: none) was determined as 28.3 nM.

As for “GCCUUAUCUGUCAGGAUAUACAAUAAAAUAACUUUGUAGAAGGGACAUGAGGAUCACCCAUGUACAUUACAUUG [alecazam24b] (Eterna round: R97, puzzle: Brourd's mod of Exclusion 4)”, the “apparent KD of MS2 coat protein” value runs as follows: (input ligand: FMN 200 uM) 63.1 nM; (input ligand: none) 24.6 nM.
